Test results from patent publication US8674063 (CENTRO DE INGENIERIA GENETICA Y BIOTECNOLOGIA, dated 2014).

Molecular target: NS3pro protease of dengue virus 2 (strain S16803) (dengue virus 2 (strain S16803))
Experiment: cell-based or functional assay

Q: Which “IC50 of inhibition of DV2 infection, plaque reduction neutralization assay in Vero cells” value does the source give for YGRKKRRQRRRPPQGGGSSPILSITISEDG [peptide NS2Bden2+TAT (peptide 1 of table 1)] here?
A: 50 to 60 µM
